T1: 重组人VEGF165 (human, UniProt P15692-4 27-191)
T1 construct: also called VEGF双体; 人血管内皮细胞生长因子
T1 sequence: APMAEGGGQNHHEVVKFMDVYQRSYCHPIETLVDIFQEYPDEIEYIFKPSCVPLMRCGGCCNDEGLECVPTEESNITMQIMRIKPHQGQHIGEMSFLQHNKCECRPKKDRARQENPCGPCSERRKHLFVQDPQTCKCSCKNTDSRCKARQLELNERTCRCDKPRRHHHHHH


Biological target: T1, 重组人VEGF165
Assay: Biacore SPR, VEGF coupled on CM5 chip, whole antibody as analyte, 1:1 Langmuir fit

Kd [nM]	koff [s⁻¹]	kon [M⁻¹ s⁻¹]	Binder
5.27	0.00149	283000	VA6L-K90D_D92V (antibody, V domains shown, also called VA6-3) VH: not shown VL: SYELTQPPSVSVAPGQTARITCSGDALGDKYASWYQQKPGQAPVLVIYEDSKRPSGIPERFSGSNSGNTATLTISGTQAEDEADYYCQVDSVNYGYVFGGGTKLTVLG
1.8	0.00096	550000	VA6-57 (antibody, IgG1, V domains shown, Whole antibody (IgG1, lambda); built further on VA6-3) VH: not shown VL: SYELTQPPSVSVAPGQTARITCSGDALGDKYASWYQQKPGQAPVLVIYEDSKRPSGIPERFSGSNSGNTATLTISGTQAEDEADYYCQVDSVNYGYVFGGGTKLTVLG
12.7	0.000445	35000	VA6全抗体 (antibody, V domains shown, Whole antibody from vectors pABL (lambda) and pABG1 (human IgG1), HEK293T transient expression) VH: not shown VL: SYELTQPPSVSVAPGQTARITCSGDALGDKYASWYQQKPGQAPVLVIYEDSKRPSGIPERFSGSNSGNTATLTISGTQAEDEADYYCQVKSDNYGYVFGGGTKLTVLG

— patent CN103012589A (SHANGHAI SERUM BIO TECHNOLOGY CO LTD; INST BIOENGINEERING …, dated 2013)
